Experimental data taken from patent publication US20030204066A1 (published 2003).

T1: human lymphotoxin (TNFβ) (human, UniProt P01374 35-205, limits assumed)
T1 sequence (looked up): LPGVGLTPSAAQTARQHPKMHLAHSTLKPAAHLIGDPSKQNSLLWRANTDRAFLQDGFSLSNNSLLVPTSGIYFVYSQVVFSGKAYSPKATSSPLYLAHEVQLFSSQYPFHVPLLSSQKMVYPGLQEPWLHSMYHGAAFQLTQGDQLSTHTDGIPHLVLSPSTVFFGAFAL

B1: p55-sf2 (p55 TNF receptor / IgG1 heavy chain single fusion with truncated light chain JCK) (Fc fusion)
chain 1: QVCPQGKYIHPQNNSICCTKCHKGTYLYNDCPGPGQDTDCRECESGSFTASENHLRHCLSCSKCRKEMGQVEISSCTVDRDTVCGCRKNQYRHYWSENLFQCFNCSLCLNGTVHLSCQEKQNTVCTCHAGFFLRENECVSCSNCKKSLECTKLCLPQIGTLVTVSS
chain 2: GTKLEIK
B2: p55-df2 (double fusion: p55 on both the IgG1 heavy chain and the kappa light chain) (Fc fusion)
chain 1: B1 chain 1
chain 2: DSVCPQGKYIHPQNNSICCTKCHKGTYLYNDCPGPGQDTDCRECESGSFTASENHLRHCLSCSKCRKEMGQVEISSCTVDRDTVCGCRKNQYRHYWSENLFQCFNCSLCLNGTVHLSCQEKQNTVCTCHAGFFLRENECVSCSNCKKSLECTKLCLPQIGTKLEIK
B3: p75P-sf2 (p75 amino acids 1-182 / IgG1 heavy chain fusion) (Fc fusion)
chain 1: QLPAQVAFTPYAPEPGSTCRLREYYDQTAQMCCSKCSPGQHAKVFCTKTSDTVCDSCEDSTYTQLWNWVPECLSCGSRCSSDQVETQACTREQNRICTCRPGWYCALSKQEGCRLCAPLRKCRPGFGVARPGTETSDVVCKPCAPGTFSNTTSSTDICRPHQICNVVAIPGNASMDAVCTSTSGTLVTVSS
chain 2: GTKLEIK
B4: p75-sf2 (complete p75 extracellular domain / IgG1 heavy chain fusion) (Fc fusion)
chain 1: QLPAQVAFTPYAPEPGSTCRLREYYDQTAQMCCSKCSPGQHAKVFCTKTSDTVCDSCEDSTYTQLWNWVPECLSCGSRCSSDQVETQACTREQNRICTCRPGWYCALSKQEGCRLCAPLRKCRPGFGVARPGTETSDVVCKPCAPGTFSNTTSSTDICRPHQICNVVAIPGNASMDAVCTSTSPTRSMAPGAVHLPQPVSTRSQHTQPTPEPSTAPSTSFLLPMGPSPPAEGSTGDGTLVTVSS
chain 2: GTKLEIK

What was measured:
[1] = molecular target: human tumor necrosis factor-α (TNFα) (human, UniProt P01375 77-233); test: cell-based or functional assay
Sequence of human tumor necrosis factor-α (TNFα) (P01375 77-233): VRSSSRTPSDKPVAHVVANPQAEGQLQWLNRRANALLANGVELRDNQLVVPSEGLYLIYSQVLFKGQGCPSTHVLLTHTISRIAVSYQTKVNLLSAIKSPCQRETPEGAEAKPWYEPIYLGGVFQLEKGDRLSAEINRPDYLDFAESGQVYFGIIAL

[2] = molecular target: T1, human lymphotoxin (TNFβ); test: cell-based or functional assay

| Binder | IC50 = concentration of fusion protein required to inhibit 2 ng/ml (39.2 pM) TNFα by 50% (WEHI 164 cytotoxicity) [1] [pM] | amount needed for the same inhibition of TNFβ cytotoxicity, against p75P-sf2 [2] |
| --- | --- | --- |
| B1 | 70 | – |
| B2 | 55 | – |
| B3 | 70 | – |
| B4 | – | 3 fold (against p75P-sf2) |
